Results taken from the RNAGym collection of RNA variant scans (doi:10.1073/pnas.2313332121).
Variants at the floor of the assay were thinned out.

B1: TPR 5TU (parent)
chain: GGAUCUUCUCGAUCUAACAAAAAAGACAAAUCUGCCACAAAGCUUGAGAGCAUCUUCGGAUGCAGAGGCGGCAGCCUUCGGUGGCGCGAUAGCGCCAACGUUCUCAACUAUGACACGCAAAACGCGUGCUCCGUUGAAUGGAGUUUAUCAUG

Variants of: B1
Experiment: polymerase ribozyme fitness, log enrichment relative to wild type (log ratio); higher = more active; in vitro selection for triplet polymerase activity
Summary of the method: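 Mutant libraries were PCR-built and transcribed for each subunit of a heterodimeric triplet polymerase ribozyme and selected for one round in triplicate at −7 °C, frozen, before gel excision of extended constructs and streptavidin-bead capture. Input and output libraries were Illumina-sequenced, keeping genotypes with ≥10 input reads and ≥1 read per output. Fitness is a logarithmic ratio of genotype to wild-type enrichment, in base 2, using inverse-variance-weighted replicate averages.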

A21C G50A C57A C93A U135G and A21G A22U A24G A39U C87A C96A U148C cannot be ordered by “polymerase ribozyme fitness (log ratio)” value: at most -4.2 for the first, at most -4.2 for the second.

Compared with A20U U56A C76U G133A, A21C G84A C118A is higher in “polymerase ribozyme fitness (log ratio)” value: at most -4.2 for the first, -0.563 for the second.

First: A21C C32G G84A G117A U135A
Second: A21C U55A C96U
The “polymerase ribozyme fitness (log ratio)” value of the first is lower: at most -4.2 for the first, -0.915 for the second.

Compared with A21C U55A, A21C C43U C79G G83U C87G A91G A119U G141A is lower in “polymerase ribozyme fitness (log ratio)” value: -0.0725 for the first, at most -4.2 for the second.

First: A21C A40C C99G
Second: A21C A24U C32A G80A C93U C95A
The “polymerase ribozyme fitness (log ratio)” value of the first is higher: -0.927 for the first, at most -4.2 for the second.

First: A20U U61G C87U C95U
Second: A21C U55G G83U
The “polymerase ribozyme fitness (log ratio)” value of the first is lower: -3.33 for the first, -0.166 for the second.

Going from A21G A40U to A21G A52G U102A, the “polymerase ribozyme fitness (log ratio)” value falls from 0.957 to -1.09.

First: A21C A142C
Second: A21G A138C
The “polymerase ribozyme fitness (log ratio)” value of the first is higher: 0.655 for the first, -4 for the second.

First: A21C C95U C129A
Second: A21C A30C A41C G59A C95U
The “polymerase ribozyme fitness (log ratio)” value of the first is higher: -2.89 for the first, at most -4.2 for the second.

Compared with A21G A30G A89C, A20U U56A A73G G94A U101A is higher in “polymerase ribozyme fitness (log ratio)” value: at most -4.2 for the first, -2.45 for the second.

Going from A21G C27A G46A A73G C87A to A21G C38U A60G C85U, the “polymerase ribozyme fitness (log ratio)” value rises from at most -4.2 to 1.

Going from A21C A89C C95U A142G to A21C C85U A138U, the “polymerase ribozyme fitness (log ratio)” value falls from -3.16 to at most -4.2.

Going from A21C A37U C76U C87U to A21G A47C C51U C87U U90G, the “polymerase ribozyme fitness (log ratio)” value falls from -1.62 to at most -4.2.

First: A21C G86A
Second: A21C A28U A30U A47G
The “polymerase ribozyme fitness (log ratio)” value of the first is higher: -0.32 for the first, at most -4.2 for the second.

A21C G50A C96U C125G and A21C A24U C38G C93U G117A are within 0.2 log units of each other in “polymerase ribozyme fitness (log ratio)” value: -1.98 for the first, -2.15 for the second.

A21G A40C G86U A119G A150C and A21C G59C C85U G100C U130A G136A U144G cannot be ordered by “polymerase ribozyme fitness (log ratio)” value: at most -4.2 for the first, at most -4.2 for the second.

First: A21C A60U
Second: A21C A60G
The “polymerase ribozyme fitness (log ratio)” value of the first is lower: -0.52 for the first, 0.714 for the second.

A21G C36G A47C A120C G133A and A21C C32G G48A A122G G126U cannot be ordered by “polymerase ribozyme fitness (log ratio)” value: at most -4.2 for the first, at most -4.2 for the second.

Going from A21C G25A C63G to A21G A22G A37C G62C G94C C103A A106C U130A, the “polymerase ribozyme fitness (log ratio)” value falls from -3.29 to at most -4.2.

Compared with A21G A41G C93A C132A, A21C A26C A28C G70U A107C A147C is lower in “polymerase ribozyme fitness (log ratio)” value: -3.75 for the first, at most -4.2 for the second.

A21C G88U A142U and A21G C27U A40U C69U C95G A98G C99U A115U A142U cannot be ordered by “polymerase ribozyme fitness (log ratio)” value: at most -4.2 for the first, at most -4.2 for the second.

First: A21C A52C C85U G117C
Second: A21C U45G C54G G143C
The “polymerase ribozyme fitness (log ratio)” value of the first is higher: -0.924 for the first, at most -4.2 for the second.

First: A21G A37U
Second: A21C A41C A115G
The “polymerase ribozyme fitness (log ratio)” value of the first is higher: -0.976 for the first, -1.51 for the second.

First: A20U U61A C72A C75U C93G C99A C131G
Second: A21G C27A
The “polymerase ribozyme fitness (log ratio)” value of the first is lower: at most -4.2 for the first, -3.89 for the second.

A21G A30U A60C U77G C85A G94U G117U A150G and A21C A26U A60C G70C G81A G84U G92A A115U cannot be ordered by “polymerase ribozyme fitness (log ratio)” value: at most -4.2 for the first, at most -4.2 for the second.

First: A21C G25A
Second: A21C A40U C93A
The “polymerase ribozyme fitness (log ratio)” value of the first is lower: -2.85 for the first, -1.84 for the second.

A21C G25A G92A G133U A150G and A21G A24G A47G G94C U102G C118U A121U cannot be ordered by “polymerase ribozyme fitness (log ratio)” value: at most -4.2 for the first, at most -4.2 for the second.

First: A21G A41C G46A G65U
Second: A21C A22U C54U A73G A89G
The “polymerase ribozyme fitness (log ratio)” value of the first is lower: at most -4.2 for the first, -1.48 for the second.

A21C U53A U56A C69U A98U G117C C118G U134A and A21C A28U G59C A97G U134C cannot be ordered by “polymerase ribozyme fitness (log ratio)” value: at most -4.2 for the first, at most -4.2 for the second.

Going from A21G A39U G83A U90G G92C C108G to A21C U56G A89C C96A C116G A119C, the “polymerase ribozyme fitness (log ratio)” value rises from at most -4.2 to -2.02.

Compared with A21G C38U, A21C G42A C54A C96G U102G is lower in “polymerase ribozyme fitness (log ratio)” value: 0.63 for the first, at most -4.2 for the second.

A21C A41U G71A A98U G136U A147U U148C and A21G A24C U31C C69G U148C cannot be ordered by “polymerase ribozyme fitness (log ratio)” value: at most -4.2 for the first, at most -4.2 for the second.

A21C C93A C99U G136U A142U and A20U U56A A64C A107G G126U cannot be ordered by “polymerase ribozyme fitness (log ratio)” value: at most -4.2 for the first, at most -4.2 for the second.

A21C G34C A39U U55A C95G U104A A119G U144G U146A and A21C G25C C76G A137C U145G cannot be ordered by “polymerase ribozyme fitness (log ratio)” value: at most -4.2 for the first, at most -4.2 for the second.

Going from A21C C57G G81A A115C to A21C C36G A41C C72U A73U U78G C96U C118U G128A A142U, the “polymerase ribozyme fitness (log ratio)” value falls from -1.84 to at most -4.2.

A21G C35A A49G C96G and A21C C35U C75U G92C C96A C108U C131U A142C cannot be ordered by “polymerase ribozyme fitness (log ratio)” value: at most -4.2 for the first, at most -4.2 for the second.

Compared with A21C G34A C43U A60C A64G A91U, A21C U44A C75A C96A is higher in “polymerase ribozyme fitness (log ratio)” value: at most -4.2 for the first, -3.98 for the second.

Going from A21C G83C C87A G92U C116G to A21C G62C, the “polymerase ribozyme fitness (log ratio)” value rises from -1.27 to -0.587.

First: A21G A106C
Second: A21C A23U A24U G92A A106G G133A
The “polymerase ribozyme fitness (log ratio)” value of the first is higher: -0.348 for the first, at most -4.2 for the second.

A20U U56G G65A C76U C85A G141C U148C and A21C U53A A91U C95G U134A U139C G152U cannot be ordered by “polymerase ribozyme fitness (log ratio)” value: at most -4.2 for the first, at most -4.2 for the second.

First: A21C U53A G58A C95U U101G C116A
Second: A21C C85U
The “polymerase ribozyme fitness (log ratio)” value of the first is higher: -0.162 for the first, -0.369 for the second.

With A21C A26U C38U C87G C105U the “polymerase ribozyme fitness (log ratio)” value was at most -4.2.
